# The RNAGym collection of RNA variant scans (doi:10.1073/pnas.2313332121)
# Fewer inactive variants are shown than the library holds.
# B1: TPR 5TU (parent)
# chain: GGAUCUUCUCGAUCUAACAAAAAAGACAAAUCUGCCACAAAGCUUGAGAGCAUCUUCGGAUGCAGAGGCGGCAGCCUUCGGUGGCGCGAUAGCGCCAACGUUCUCAACUAUGACACGCAAAACGCGUGCUCCGUUGAAUGGAGUUUAUCAUG
# Variants of: B1
# Experiment: polymerase ribozyme fitness, log enrichment relative to wild type (log ratio); higher = more active; in vitro selection for triplet polymerase activity
# Outline: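 A single round of triplicate in vitro selection, including frozen incubation at −7 °C, was applied to PCR-built, transcribed mutant libraries of each subunit of a heterodimeric triplet polymerase ribozyme. Illumina sequencing of input and output libraries retained genotypes with ≥10 input reads and ≥1 read per output. Fitness is the base-2 logarithm of genotype enrichment divided by wild-type enrichment, from inverse-variance-weighted replicate averages.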
row,Variant,polymerase ribozyme fitness (log ratio)
1,A39U U101C U144G,-2.52
2,A40C C85A G92U A119C A147C,≤ -4.2
3,A39U U55G U82C C85U U146C,-2.49
4,A40C U82G A89G,0.203
5,A40C A41U C99U C125A,-2.04
6,A39U G59C G83U,-2.72
7,A40C A64G G83U G133C A138C,≤ -4.2
8,A40C G92U G94A,0.834
9,A40C C131G,-3.13
10,A40C C63U U82G G83C C96G A120C A121U U144A,-0.868
11,A40C A98U A122U,0.766
12,A39U C54U U61A C93U A106U,≤ -4.2
13,A40C G50A C95U U148C,≤ -4.2
14,A40C A41C G58C A91U G124A C125A,≤ -4.2
15,A39U G58C G74U A91G C123G G133A U146C,≤ -4.2
16,A39U U55G G88A U104A U135A U144C C149A,≤ -4.2
17,A40C C87U,-0.91
18,A40C C87A,-3.55
19,A40C G92A U109C G141U,≤ -4.2
20,A40C U55A G88A C108G C118U U130A,≤ -4.2
21,A40C C57U A60G U61A,-2.29
22,A39U U45C C93U,≤ -4.2
23,A39U U53A A91G A97G U111G,-4.05
24,A39U C69A G74C C76U C87A,≤ -4.2

row,Variant,polymerase ribozyme fitness (log ratio)
1,A40C A89U,0.433
2,A39U U53A C75G G86U U146G,≤ -4.2
3,A40C G48C U56G,-1.94
4,A39U G46C G48A G50C U56A G84U,≤ -4.2
5,A40C A119C,0.851
6,A39U G68A A73G C87G C132A G141C U144C,≤ -4.2
7,A39U U56A C93U,-3.55
8,A40C C85U G133C A142G,-3.92
9,A39U G100A A110G A150U,≤ -4.2
10,A39U U139A,-3.87
11,A40C C96G A119G,0.217
12,A39U G74A C85U A91C C125A,≤ -4.2
13,A40C C54U U56A G126U,-0.0276
14,A39U C76A G86C G126A C132U U134A,≤ -4.2
15,A39U G84C,-3.33
16,A40C U53A,0.24
17,A39U G100C U148A,-4.2
18,A40C C51U C57A G94U C114G A150G,≤ -4.2
19,A40C U44A G59A C93A U109A,≤ -4.2
20,A40C C95U,-0.646
21,A40C G70A,-2.97
22,A40C U82C G94U,-0.916
23,A39U G42C U77C C85A C95G,≤ -4.2
24,A39U G86A,-3.06

row,Variant,polymerase ribozyme fitness (log ratio)
1,A40C G84A U90G G100C,≤ -4.2
2,A39U U61C C96A,-3.93
3,A39U G58C G88A,≤ -4.2
4,A40C G140U,-3.39
5,A39U G48C G67A C85G G86U G88A G92A C118G,≤ -4.2
6,A40C C76G U151A,≤ -4.2
7,A40C U44G C63U C95U C103G A115G A142C,≤ -4.2
8,A40C G141A,0.793
9,A40C A49U U56A C57A G88C U135A A137U,≤ -4.2
10,A39U C69U C95U C129G,≤ -4.2
11,A40C A113U C118U G136A,-2.68
12,A40C A52U U55A C93U,-3.92
13,A40C U53G A66G A119G,≤ -4.2
14,A39U G59C G83U A147U,-2.17
15,A39U U44A C79G C132G U139A,≤ -4.2
16,A40C C125A,-0.0259
17,A39U C118U,-2.03
18,A40C C85U C95U A98G G126U,-1.37
19,A39U C96A,-2.81
20,A39U C96G,-2.11
21,A40C A52C G83A,-2.55
22,A40C A97U,-0.185
23,A40C A97C,1.5
24,A40C G50A A60U G88U G92C C95G G100U,≤ -4.2

row,Variant,polymerase ribozyme fitness (log ratio)
1,A40C G46A A91G U104G A119G U148G,≤ -4.2
2,A40C A52G U82A G92U A106U,-3.38
3,A39U U78A G83A G84C A115U U134C G136U,≤ -4.2
4,A40C C51A G86C U139C,≤ -4.2
5,A40C G83C,0.449
6,A39U C76G G92U C108U,≤ -4.2
7,A40C G94U C95G,-3.87
8,A40C U56A G128C,-3.92
9,A40C G46C C57A G74C C103A A107U C118G U134G G140C,≤ -4.2
10,A40C U135A,-0.385
11,A39U U77G G124C U135G U146A,≤ -4.2
12,A40C G83A A97G,-1.2
13,A40C G81A,0.951
14,A40C U55A G59A A113U C123A,-0.982
15,A39U C76A G83U C125U,≤ -4.2
16,A40C U45A G50A A73U G92A,≤ -4.2
17,A40C C75G U82G C93G A138G G140C,≤ -4.2
18,A40C C75U C116U A119C,-1.75
19,A40C G50A,-2.43
20,A40C G92C,-1.84
21,A40C U44A A60G C69U C72U G83C U104A U127G G152A,≤ -4.2
22,A39U G81A C99U U104C G117A,-3.48
23,A40C G68U G86A C103G,≤ -4.2
24,A40C G88U C96U A122U U127G U148A A150U,≤ -4.2

row,Variant,polymerase ribozyme fitness (log ratio)
1,A39U G46A C93G A119U U139G,≤ -4.2
2,A39U G117U,-1.04
3,A39U C95U C96A G124A,-3.2
4,A40C C54A A89U G94U,-2.57
5,A40C A89G A150G,-3.25
6,A40C G50U U148A,≤ -4.2
7,A40C A52C G86A A98G,-2.37
8,A39U U44C U53A G62U G86A,≤ -4.2
9,A40C C75G C85A G141U,≤ -4.2
10,A40C A60G U139C U144C,-3.63
11,A40C G48A G58A C87U,-2.55
12,A40C C76U C93G G152A,≤ -4.2
13,A40C A41C G59A G70U G84A C85A C105G G141C G143U,≤ -4.2
14,A39U C93A C105G A113U C114G,≤ -4.2
15,A40C U55G G58A U130A U135C,≤ -4.2
16,A40C C57A U139C,-3.43
17,A40C C96U U144G U151G,-3.73
18,A40C C76U C95A C131G G141U,-1.68
19,A40C C69G G80A,-0.716
20,A39U C72A G83A A137U,≤ -4.2
21,A39U G71C G84A C103U,≤ -4.2
22,A40C C96U A122G G124C,-0.809
23,A40C A41C A49C A91U,≤ -4.2
24,A40C A49C C54A C96U C114U G126A,≤ -4.2

row,Variant,polymerase ribozyme fitness (log ratio)
1,A40C G42A A52C G94C C99U,≤ -4.2
2,A40C G50C C79U G81C C118U,≤ -4.2
3,A40C A49U C57A C76A U82C G94U,≤ -4.2
4,A40C U56A C57U G140C,-3.75
5,A39U C79G G84U,≤ -4.2
6,A40C G42U U55A C85A,≤ -4.2
7,A39U C85U,-2.27
8,A40C G100U U102G U135A,≤ -4.2
9,A39U G50U G83A C96G C103U U135G,≤ -4.2
10,A40C U44G U53A C87G A107U A121U G124C U130A G143A,≤ -4.2
11,A40C C93A C99U G133C,-3.98
12,A40C U134A,-1.77
13,A39U U55A G83U C95G A115C C149G,≤ -4.2
14,A40C A122G,0.759
15,A40C C85U,-0.549
16,A40C C85A,-2.39
17,A40C U55A A89C,0.0362
18,A39U G74U G81C A91U A98G C99U G124A,≤ -4.2
19,A39U G80C A91U,≤ -4.2
20,A40C U82G G94A,0.746
21,A40C U55A U104C,-0.475
22,A40C G84A A97U,-2.32
23,A40C G94U C129G U139A G141U U146C,≤ -4.2
24,A40C G62U A119U,-0.408

row,Variant,polymerase ribozyme fitness (log ratio)
1,A39U G92C U127A,≤ -4.2
2,A40C A98G C131U U134A,-2.13
3,A40C A52G C79A C85U C99A A106G A142U G152U,≤ -4.2
4,A40C C96U,-0.579
5,A40C A52U G68C C85A G128C,≤ -4.2
6,A40C A60U,0.0412
7,A40C A47C C93A A137G U146C,-4.13
8,A40C G42A A49G G62C C93A,≤ -4.2
9,A40C G42C C69G C85A U104G G128C G133A,≤ -4.2
10,A39U U53C C108G C149U,≤ -4.2
11,A40C C54U G141U,0.7
12,A40C U56A A89G,-0.978
13,A40C U55A G59C C69U G84A,-2.39
14,A39U U45G C85A A91C G92C,≤ -4.2
15,A39U C69U C75U G84U U127G,≤ -4.2
16,A39U G86U C114U A120U G140A,≤ -4.2
17,A40C G143A,-0.684
18,A40C G48C G81U C85A,-1.52
19,A40C G86A G141C A147C,≤ -4.2
20,A40C G50A C72U U78C C87U,≤ -4.2
21,A40C C93A,-1.96
22,A39U C85G C96A A107G,≤ -4.2
23,A40C A49C U56A A60C G84A G136A,≤ -4.2
